Experimental data from the DeepSol protein solubility set.

Experiment: soluble on expression in E. coli; label from the status in PepcDB or PDB records

Sequence	soluble on expression in E. coli
MCSKQSANQQISYRQTAEATLDKGMDNQPEAPYWFPKQLLKWQLSKDKAAKYNTASVPLAKRIDKWQLPTVNKTQDPKMKVVALSIMNSSTSGNAPRGINTFDANVFSNWQYIDQLVYWGGSAGEGLIVPPTADVIDSAHKNGVPVLGTVFFPQVVSGGKLKWLNDFLKQDADGHFPMADKLVAVAKAYGFDGWFINQETDPEVKSFDSASTGKTATSSTSNGLSKKHAQLMQQLIKEYKQKAGSKLDLMWYDSMTKDGKMDWQNALTKENQSYLVDANMKPVADSMFLNFWWTKKRLASQELLKKSHERAEKLGISPYNLFAGIDVQADGTATPVRWNLFANKQHVPYTSLGLYAPDWTHASSDTVDEFQAKEGALWVNLEHHHHHH	soluble
MCSTFMHKFYNSFYFGVMLTTRKEEQMLSKIVWSLLKPQLSSRSYLYNKFVVPPLQIIYVQ	soluble
MCTALMAIPEDGDTEVVSEKTFKVFSLLNLDAPYLHDKAHVTEEEEITGCCGRRKGALIATMQVDEIGVMPGMTSKISLTVENKTKKRKKWMRKKDNHECVLLSLCQQLDFVAVNRNDPMMIDRKSITIAVESHGTCKTKAGVGPQTKEIEFSVPPNLPPTSIHANRLVTVSYFFKLDLDHFDLVLPVIVGSVKSSASNGSEK	not soluble
MDAEGNLFMSWRDGGTFGIARINEQQNIVTPLIEADAANRILYANGLTVDRATGMLTAAHESVKEVTFTFDPREAWYPRQRNIKYSQSDLNSIVDADRYKNFVTFCPYDGYLYTRYRDGKIAKIDPNTFEGHIIHQGPSGSQYGQAINPAKPWLLYITLHSNAPTAYRQGISVLDLRDPDGTGGFKRLNAPGGSAFRDGPIEDALFNYPKDIKFDNDGNMFVADYGNHCIRMISADNIVTTVAGQPGVAGYKDGGPVESLFKNPWGVAVNEQGDIYIADWGNARIRKLVIELEHHHHHH	not soluble
MDALVIRNPELLADALRGLSQSPKRMEPKWFYDAEGSALFERITELPEYYPTRTETAILTAGADRLAAHVPEGAELVELGSGASVKTRLLLDRLTGLSAYVPVDISASFLKETARALARDYPDLPIHPVVADFTKPLRLADEGHPRVGFFPGSTLGNLDPEGARALMRGVRDWPGIRGFIVGIDLIKDEDTLVRAYDDAAGVTAAFNLNLLHRMNREIGADFDPDRFAHRAIWNAEKARIEMHLESLEDQEVQIGPRRIRFRAGETIHTENSHKFSATSFAERAAEAGWRLADFLTDARRQFGVAVLEPA	not soluble
MDAQTFKTAIVRRRLVDVLMNPELKATLVLKNGLVINVVTREIYPADVAVYDEYILKVGDASDLIGPETEVVDLQGKYYVSPGFIDSHMHFESSMLTISEFSRLSIPSGTTTLVADPHEIGNALGPVGIKAMAEETKVVPNRVYLVVPALTPDCPGLETAGYDITSRDMPEILNYPNVIGIGELQGFSNAKYVYKYTPEIITDLIASTTYAKSIGKIVDGNAPELFGSELAAHLIAAGTEASCHETTTKEECVEKLRYGMYVFMREGSTQKNMAECIRAVTEEGLDSRRLIGATDDMVAEDLAKNGHMNWVVARIIKQGIDPVEAIQMVTINPATYFGLKHVGVLAPGKMADIVVISDLMDMKVEKVYIGGKLVAEKGKMVVNIPKYTYPEEVKHSVKCKPVTAEALEIKATGSNAVVRTIGLIPDQNLTESFEFTVPVSGGVAQPDLTQDVLPIAVVERYGRNGSIGRAFVRGFGLKGGAFAESVSHDAHNIIVVGTSYQDMALAVNRVIEMGGGVAVVKNGRVLGDLRLPVGGLITDELDGYELSRKIAELHRLTAVELGCTVHAPFMHLSFLALTTSPKWKITDQGLIDVNSFAIIPPVK	soluble
MDDILVTSDLTSRYKISRKTLWSWQSADTMPRGFVCPFPPPDWPGNPNRWRSESIKEWEDKKKIN	not soluble
MDDLASQSFPEPERAIMKATYQVLCEYGYADLTIQQIADEYGKTTTAVHYHCDTKNKLLTAFLDYLLEELADSVHNIRTTNPENRLKFLLDELLVKSKNEPVLSIALLEMQSQTPYKEPFRERFKQMAVVNRQTELDFTVSETA	not soluble
